Experiment in all cases: ITC
The target in experiment [1] is Atx3_(6Q)-IIC (C-terminal fragment, residues 221-373, of isoform-II Atx3, polyQ truncated to 6Q).
For experiment [2], the target named is Atx3_(22Q)-IIC (C-terminal fragment, residues 221-373, of isoform-II Atx3, 22Q).
The target in experiment [3] is Atx3_(46Q)-IIC (C-terminal fragment, residues 221-373, of isoform-II Atx3, polyQ expanded to 46Q).

pKd: −log10 of the molar value.

As usually defined, the pKd is −log10 of the Kd, conventionally taken in molar units.

With “P97N (N-terminal domain of P97, residues 1-213) (from UniProt P55072 1-213) (domain or fragment)”, the pKd in experiment [1], in experiment [2] and in experiment [3] was 5.00 in each case.
For the substance “K48-diUb (Lys48-linked di-ubiquitin) (from UniProt P0CG48 1-76) (complex)”, the pKd in experiment [1], in experiment [2] and in experiment [3] was 4.30 throughout.

Source of the values: paper PMC5377324.
